As usually defined, the EC50 is the concentration at which the effect is half-maximal.

Experimental findings from US20250002610A1 (Genmab, published 2025) are described below.

The target of assay [1] is T1, human FAPα (Fibroblast activation protein alpha), cell surface expressed (human, UniProt Q12884 1-760).
T1 construct: Endogenous on human lung fibroblasts and CAFs
T1 sequence: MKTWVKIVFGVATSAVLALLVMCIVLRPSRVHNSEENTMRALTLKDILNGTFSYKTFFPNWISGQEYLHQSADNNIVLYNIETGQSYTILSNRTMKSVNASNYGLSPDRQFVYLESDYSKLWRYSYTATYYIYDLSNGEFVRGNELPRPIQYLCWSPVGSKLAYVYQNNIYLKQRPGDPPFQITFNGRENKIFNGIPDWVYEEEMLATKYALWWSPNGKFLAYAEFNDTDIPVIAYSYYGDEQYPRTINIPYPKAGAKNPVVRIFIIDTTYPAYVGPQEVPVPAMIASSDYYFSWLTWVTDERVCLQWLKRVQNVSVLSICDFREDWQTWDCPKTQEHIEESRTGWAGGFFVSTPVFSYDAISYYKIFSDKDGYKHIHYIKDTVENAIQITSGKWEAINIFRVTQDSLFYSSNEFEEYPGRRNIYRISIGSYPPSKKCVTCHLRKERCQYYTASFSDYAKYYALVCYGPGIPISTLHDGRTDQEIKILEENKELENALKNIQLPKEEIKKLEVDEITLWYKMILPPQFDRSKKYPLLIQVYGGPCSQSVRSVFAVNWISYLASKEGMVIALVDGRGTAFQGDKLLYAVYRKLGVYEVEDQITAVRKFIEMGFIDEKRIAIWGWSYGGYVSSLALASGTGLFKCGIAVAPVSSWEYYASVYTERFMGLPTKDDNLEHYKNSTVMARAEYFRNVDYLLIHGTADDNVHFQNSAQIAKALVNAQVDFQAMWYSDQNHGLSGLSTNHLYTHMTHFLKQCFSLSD
The assay is described as follows: flow cytometry, human lung fibroblasts, n = 1. The protocol: (§1) Human lung fibroblasts and CAFs (50,000 cells/well) were seeded in 96-Well round bottom plates (Greiner Bio-one, Cat #650101). Antibody dilutions were prepared using fluorescence-activated cell sorting (FACS) buffer, consisting of phosphate buffer saline (PBS, Lonza, Cat #BE17-517Q)+1% Bovine Serum Albumin (BSA, Roche, Cat #10735086001)+0.02% Sodium Azide (Bio-World, Cat #41920044-3). Plates were centrifuged, supernatant was removed, cells were resuspended in 50 μL of human Fc Block (BD, Cat #564220, diluted 1:100 in FACS buffer) and 50 μL of viability stain TO-PRO-3 Iodide (Thermo Fisher, Cat #T3605, diluted 1: 25,000 in FACS buffer), and incubated for 15 min at 4° C. Plates were washed three times with FACS buffer. Plates were centrifuged, supernatant was removed, cells were resuspended in 50 μL of antibody dilutions (concentration range 90-0.0005 μg/mL, three-fold dilution steps using FACS buffer) of BisG1-FAPα-FERL/DR4-FERR, BisG1-FAPα-FERL/b12-FERR, BisG1-b12-FERL/b12-FERR (top six concentrations only for CAFs culture) or IgG1-FAPα-FERL (top four concentrations only for CAFs culture) and incubated for 30 min at 4° C. Cells were washed three times with FACS buffer and resuspended in 50 μL of Fluorescein isothiocyanate (FITC)-labeled polyclonal antibody goat anti-mouse IgG1 (Jackson Immuno Research, Cat #109-096-097, diluted 1:100 in FACS buffer). After 30 min incubation at 4° C., cells were washed twice with FACS buffer and resuspended in FACS buffer. Antibody binding to viable cells (TO-PRO-3 negative) was analyzed by flow cytometry on a FACSCelesta™ (BD biosciences) and data were processed using FlowJo_v10.8.1 (FlowJo LLC). Geomean fluorescence intensity, gMFI, was determined and visualized using GraphPad Prism. Binding curves were analyzed using nonlinear regression analysis. The concentration (pg/mL) at which 50% of the maximal effect was observed (EC₅₀) was derived from the fitted curves.
(§2) Binding of FAPα-targeting monoclonal antibody clones, IgG1-FAPα-FEAL and IgG1-FAP5-FEAL, and bispecific antibodies carrying a binding arm derived from the two FAPα-binding clones (BisG1-FAPα-FEAL/b12-FEAR and BisG1-FAP5-FEAL/b12-FEAR) to human lung fibroblasts, which endogenously express FAPα, was compared and analyzed by flow cytometry.
A general note: In flow cytometry, cells or beads pass a laser one at a time.

For assay [2], the target named is T1, human FAPα (Fibroblast activation …). The assay is described as follows: flow cytometry, human lung fibroblasts, n = 2. The protocol: as §1, with “After 30 min incubation at 4° C., cells were washed twice with FACS buffer and resuspended in FACS buffer.” left out, “The concentration (pg/mL) at which 50% of the maximal effect was observed (EC₅₀) was derived from the fitted curves.” left out
as §2

B1: IgG1-FAPα-FEAL (antibody)
heavy: EVQLLESGGGLVQPGGSPRLSCEASGFTFSSYALSWVRQAPGKGLEWVSAISGSGGGRYYADSVKGRFTISRDNSKNTLFLQMNSLRAEDTAVYYCAKEGYSSSGTYWDHWGQGTLVTVSSASTKGPSVFPLAPSSKSTSGGTAALGCLVKDYFPEPVTVSWNSGALTSGVHTFPAVLQSSGLYSLSSVVTVPSSSLGTQTYICNVNHKPSNTKVDKRVEPKSCDKTHTCPPCPAPEFEGGPSVFLFPPKPKDTLMISRTPEVTCVVVAVSHEDPEVKFNWYVDGVEVHNAKTKPREEQYNSTYRVVSVLTVLHQDWLNGKEYKCKVSNKALPAPIEKTISKAKGQPREPQVYTLPPSREEMTKNQVSLTCLVKGFYPSDIAVEWESNGQPENNYKTTPPVLDSDGSFLLYSKLTVDKSRWQQGNVFSCSVMHEALHNHYTQKSLSLSPG
light: AIQMTQSPSSVSASVGDRVTITCRASQGVSSWLAWYQQKPGRAPKLLIYVASTLQSGVPSRFSGSGSGTDFTLTINSLQPEDFATYYCQQANSFPPTFGQGTRLEMKRTVAAPSVFIFPPSDEQLKSGTASVVCLLNNFYPREAKVQWKVDNALQSGNSQESVTEQDSKDSTYSLSSTLTLSKADYEKHKVYACEVTHQGLSSPVTKSFNRGEC
In assay [1], B1 returned an EC50 of 0.014 µg/mL.

B2: BisG1-FAP5-FEAL/b12-FEAR (bispecific antibody, human IgG1, kappa)
heavy 1: QVQLQQSGAELARPGASVNLSCLASGYTFTNNGINWLKQRTGQGLEWIGEIYPRSTNTLYNEKFKGKATLTADRSSNTAYMELRSLTSEDSAVYFCARTLTAPFAFWGQGTLVTVSSASTKGPSVFPLAPSSKSTSGGTAALGCLVKDYFPEPVTVSWNSGALTSGVHTFPAVLQSSGLYSLSSVVTVPSSSLGTQTYICNVNHKPSNTKVDKRVEPKSCDKTHTCPPCPAPEFEGGPSVFLFPPKPKDTLMISRTPEVTCVVVAVSHEDPEVKFNWYVDGVEVHNAKTKPREEQYNSTYRVVSVLTVLHQDWLNGKEYKCKVSNKALPAPIEKTISKAKGQPREPQVYTLPPSREEMTKNQVSLTCLVKGFYPSDIAVEWESNGQPENNYKTTPPVLDSDGSFLLYSKLTVDKSRWQQGNVFSCSVMHEALHNHYTQKSLSLSPG
light 1: QIVLTQSPAIMSASPGELVTMTCSASSGVNFMHWYQQLSGTSPKRWIFDTSKLASGVPARFSGSGSGTSYSLTISSMEAEDAATYYCQQWSFNPPTFGGGTKLEIKRTVAAPSVFIFPPSDEQLKSGTASVVCLLNNFYPREAKVQWKVDNALQSGNSQESVTEQDSKDSTYSLSSTLTLSKADYEKHKVYACEVTHQGLSSPVTKSFNRGEC
heavy 2: QVQLVQSGAEVKKPGASVKVSCQASGYRFSNFVIHWVRQAPGQRFEWMGWINPYNGNKEFSAKFQDRVTFTADTSANTAYMELRSLRSADTAVYYCARVGPYSWDDSPQDNYYMDVWGKGTTVIVSSASTKGPSVFPLAPSSKSTSGGTAALGCLVKDYFPEPVTVSWNSGALTSGVHTFPAVLQSSGLYSLSSVVTVPSSSLGTQTYICNVNHKPSNTKVDKRVEPKSCDKTHTCPPCPAPEFEGGPSVFLFPPKPKDTLMISRTPEVTCVVVAVSHEDPEVKFNWYVDGVEVHNAKTKPREEQYNSTYRVVSVLTVLHQDWLNGKEYKCKVSNKALPAPIEKTISKAKGQPREPQVYTLPPSREEMTKNQVSLTCLVKGFYPSDIAVEWESNGQPENNYKTTPPVLDSDGSFFLYSRLTVDKSRWQQGNVFSCSVMHEALHNHYTQKSLSLSPG
light 2: EIVLTQSPGTLSLSPGERATFSCRSSHSIRSRRVAWYQHKPGQAPRLVIHGVSNRASGISDRFSGSGSGTDFTLTITRVEPEDFALYYCQVYGASSYTFGQGTKLERKRTVAAPSVFIFPPSDEQLKSGTASVVCLLNNFYPREAKVQWKVDNALQSGNSQESVTEQDSKDSTYSLSSTLTLSKADYEKHKVYACEVTHQGLSSPVTKSFNRGEC
notes: Fab-arm exchange of IgG1-FAP5-FEAL and IgG1-b12-FEAR
As for B2, the figures for the EC50 in assay [1] and in assay [2] were 0.58 µg/mL and 0.62 µg/mL, respectively.
